In US20220220216A1 (Kyowa Kirin, published 2022):
Changes are numbered by the printed parent chain. Names and notes keep the numbering of the source. Like-named read-outs stand apart in the source and are kept apart here.

Tests used:
[1] = target: T1, human GPC3 on a cell membrane (human, UniProt P51654 25-554); experiment: FCM on HepG2 cells (GPC3-positive), APC anti-human IgG Fc, MFI [B]
T1 construct: HepG2 and HuH-7 carry the endogenous protein; also called hGPC3; GPC3 on HepG2 cells, HuH-7 cells, MC-38/hGPC3 cells and Expi293F cells transiently expressing human GPC3

human CD40 on cells [2] = target: T2, human CD40 on cells (human, UniProt P25942 21-277); experiment: FCM on Ramos cells (CD40-positive, GPC3-negative), antibody at 0.01-10 µg/mL, APC anti-human IgG Fc, MFI [A]
T2 construct: Endogenous CD40 of Ramos cells (and of monocyte-derived dendritic cells); also called CD40 on Ramos cells; CD40 on human induced dendritic cells
Procedure: (§1) Ramos cells were suspended in SB at a cell density of 1×10⁶ cells/mL, and the suspension was dispensed in a 96-well round bottom plate (manufactured by Falcon, Inc.) at 100 μL/well.
(§2) After further centrifugation (2000 rpm, 4° C., 2 minutes), the supernatant was removed, and the pellet was washed 3 times with 200 μL/well of SB, and then, APC-conjugated AffiniPure F(ab′)₂ Goat Anti-Human IgG, Fcγ (manufactured by Jackson ImmunoResearch Laboratories, Inc.) diluted 100 times was added thereto at 100 μL/well, and the plate was incubated at ice temperature for 30 minutes. After washing twice with SB, the cells were suspended in 100 μL/well of SB, and the fluorescence intensity of each cell was measured using a flow cytometer FACSCANTO II (manufactured by Becton, Dickinson and Company).

human CD40-GST protein = target: T3, human CD40-GST protein (human, UniProt P25942 21-193); experiment: phage ELISA, CD40-GST immobilised on the plate
T3 construct: not shown: GST region of the N5 vector
Procedure: (§3) In the ELISA, MAXISORP (manufactured by NUNC, Inc.) in which the human or monkey CD40-GST in Example 1 was immobilized on each well and a portion to which the human or monkey CD40-GST is not bound was blocked using SuperBlock Blockig Buffer (manufactured by Thermo Fisher, Inc.) was used. To each well, each phage clone was added and reacted at room temperature for 30 minutes, and thereafter, each well was washed 3 times with PBS-T.
(§4) Subsequently, an anti-M13 antibody (manufactured by GE Healthcare, Inc.) labeled with horseradish peroxidase was diluted 5000 times with PBS-T containing 10% Block Ace (manufactured by Dainippon Pharmaceutical Co., Ltd.), and the resultant was added in an amount of 50 μL to each well, and incubated at room temperature for 30 minutes. After the microplate was washed four times with PBS-T, a TMB chromogenic substrate solution (manufactured by DAKO, Inc.) was added in an amount of 50 μL to each well and incubated at room temperature for 10 minutes.

monkey CD40-GST protein = target: T4, monkey CD40-GST protein (monkey, UniProt P25942 21-193 (human entry)); experiment: phage ELISA, CD40-GST immobilised on the plate
T4 construct: it may begin with a signal peptide; not shown: GST region of the N5 vector
T4 chain: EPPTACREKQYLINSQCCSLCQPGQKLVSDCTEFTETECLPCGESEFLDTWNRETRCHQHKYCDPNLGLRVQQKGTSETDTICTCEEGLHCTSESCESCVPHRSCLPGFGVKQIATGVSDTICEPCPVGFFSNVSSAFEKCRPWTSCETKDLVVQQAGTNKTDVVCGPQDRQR
Procedure: as §3, §4

human CD40 on cells [3] = target: T2, human CD40 on cells; experiment: FCM on Ramos cells (CD40-positive), MFI [B]
Procedure: The reactivity of each of various bispecific antibodies produced in Example 16 with HepG2 cells and Ramos cells was evaluated by FCM in the same manner as in Example 7.

[4] = target: T5, Human GPC3-His (manufactured by ACROBiosystems, Inc.) (human, UniProt P51654 25-559); experiment: SPR (Biacore T100), antibody captured on anti-human IgG, antigen as analyte, single cycle kinetics
T5 construct: Bought protein; also called hGPC3-His; not shown: His tag
Procedure: (§5) An anti-human IgG antibody was immobilized on a CMS sensor chip (manufactured by GE Healthcare, Inc.) using Human Antibody Capture Kit (manufactured by GE Healthcare, Inc.) according to the package insert. A test antibody prepared at 2 μg/mL was added to a flow cell for 10 seconds at a flow rate of 10 μL/min.
(§6) The measurement was performed by a single cycle kinetics method.
(§7) The obtained sensorgram was analyzed using Bia Evaluation Software (manufactured by GE Healthcare, Inc.), and the kinetic constant of each antibody was calculated.

[5] = target: T5, Human GPC3-His (manufactured by …); experiment: as above; remark: listed apart in the source
Procedure: as §5, §6

human CD40 on cells [6] = target: T2, human CD40 on cells; experiment: FCM on Ramos cells (CD40-positive, GPC3-negative)
Procedure: as §1, §2

[7] = target: T5, Human GPC3-His (manufactured by …); experiment: SPR (Biacore T100), antibody captured on anti-human IgG, antigen as analyte, single cycle kinetics; first run (Table 8)
Procedure: as §5, §6, §7

[8] = target: T5, Human GPC3-His (manufactured by …); experiment: SPR (Biacore T100), antibody captured on anti-human IgG, antigen as analyte, single cycle kinetics; second run (Table 9)
Procedure: as §5, §6

human CD40 on cells [9] = target: T2, human CD40 on cells; experiment: FCM on Ramos cells (CD40-positive, GPC3-negative), APC anti-human IgG Fc, MFI [A]
Procedure: as §1, §2

T5 sequence (P51654 25-559 limits assumed): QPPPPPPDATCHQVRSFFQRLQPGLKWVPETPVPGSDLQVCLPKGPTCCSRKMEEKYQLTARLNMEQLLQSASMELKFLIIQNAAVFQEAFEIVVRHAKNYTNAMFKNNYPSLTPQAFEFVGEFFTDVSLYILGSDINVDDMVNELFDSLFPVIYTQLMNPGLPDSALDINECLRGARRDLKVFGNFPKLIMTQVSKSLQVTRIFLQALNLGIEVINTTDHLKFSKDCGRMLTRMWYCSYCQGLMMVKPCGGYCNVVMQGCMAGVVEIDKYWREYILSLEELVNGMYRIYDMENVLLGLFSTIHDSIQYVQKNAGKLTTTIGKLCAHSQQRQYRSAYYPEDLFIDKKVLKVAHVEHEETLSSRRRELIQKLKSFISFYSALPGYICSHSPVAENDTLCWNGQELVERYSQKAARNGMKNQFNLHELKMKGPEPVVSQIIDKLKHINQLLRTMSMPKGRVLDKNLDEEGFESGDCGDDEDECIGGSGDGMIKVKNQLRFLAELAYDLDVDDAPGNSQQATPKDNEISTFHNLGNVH
T1 sequence (P51654 25-554 limits assumed): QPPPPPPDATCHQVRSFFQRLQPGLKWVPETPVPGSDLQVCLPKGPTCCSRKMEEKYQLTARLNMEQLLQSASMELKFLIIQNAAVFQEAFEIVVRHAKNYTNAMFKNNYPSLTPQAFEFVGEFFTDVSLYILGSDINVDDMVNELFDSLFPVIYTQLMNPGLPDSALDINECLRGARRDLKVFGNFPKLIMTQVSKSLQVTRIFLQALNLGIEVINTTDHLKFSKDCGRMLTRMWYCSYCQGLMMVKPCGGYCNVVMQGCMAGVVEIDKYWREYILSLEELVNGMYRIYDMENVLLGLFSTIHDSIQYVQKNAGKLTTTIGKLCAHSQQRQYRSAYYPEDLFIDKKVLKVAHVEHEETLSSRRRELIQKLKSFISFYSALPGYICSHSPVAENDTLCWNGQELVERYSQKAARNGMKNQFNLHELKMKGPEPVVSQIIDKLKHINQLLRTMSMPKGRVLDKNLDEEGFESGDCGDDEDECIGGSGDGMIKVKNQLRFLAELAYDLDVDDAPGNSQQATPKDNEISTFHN

B1: anti-CD40 monoclonal antibody R1090S55A (antibody, V domains shown)
VH: EVQLVQSGAEVKKPGESLKISCKGSGYSFIIYWIGWVRQMPGKGLEWMGIIYPNDADTRYSPSFQGQVTISADKSISTAYLQWSSLKASDTAMYYCVRLGTRDWFDPWGQGTLVTVSS
VL: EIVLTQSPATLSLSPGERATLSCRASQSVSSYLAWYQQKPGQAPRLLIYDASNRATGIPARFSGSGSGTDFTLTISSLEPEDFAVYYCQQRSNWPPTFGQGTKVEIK
[1]
  binding result: no binding (tested: 10 µg/mL)
Human CD40 on cells [2]
  binding result: binds

B2: R1090S55A monoclonal phage clone (scFv displayed on M13 phage) (scFv, V domains shown)
VH: B1 VH
VL: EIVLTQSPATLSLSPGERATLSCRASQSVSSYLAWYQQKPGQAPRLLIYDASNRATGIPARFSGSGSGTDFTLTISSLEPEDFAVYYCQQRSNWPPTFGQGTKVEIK
notes: Form in the screening ELISA: scFv on phage (phagemid pCANTAB 5E); also called R1090S55A phage clone
Human CD40-GST protein
  binding result: binds
Monkey CD40-GST protein
  binding result: binds

B3: conventional anti-GPC3 antibody YP7 (IgG4PE R409K) (antibody, V domains shown)
VH: EVQLVETGGGMVQPEGSLKLSCAASGFTFNKNAMNWVRQAPGKGLEWVARIRNKTNNYATYYADSVKARFTISRDDSQSMLYLQMNNLKIEDTAMYYCVAGNSFAYWGQGTLVTVSA
VL: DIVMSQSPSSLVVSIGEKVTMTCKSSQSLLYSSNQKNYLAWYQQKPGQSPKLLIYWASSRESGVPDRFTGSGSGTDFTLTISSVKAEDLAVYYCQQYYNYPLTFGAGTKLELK
notes: Variable regions from WO 2013/181543; not shown: constant region of 'a κ chain'
Human CD40 on cells [3]
  binding result: no binding (tested: 10 µg/mL)
[4]
  Kd: 0.861 nM
  koff: 0.000186 s⁻¹
  kon: 217000 M⁻¹ s⁻¹

B4: conventional anti-GPC3 antibody GC33 (IgG4PE R409K) (antibody, V domains shown)
VH: QVQLQQSGAELVRPGASVKLSCKASGYTFTDYEMHWVKQTPVHGLKWIGALDPKTGDTAYSQKFKGKATLTADKSSSTAYMELRSLTSEDSAVYYCTRFYSYTYWGQGTLVTVSA
VL: DVVMTQTPLSLPVSLGDQASISCRSSQSLVHSNGNTYLHWYLQKPGQSPKLLIYKVSNRFSGVPDRFSGSGSGTDFTLKISRVEAEDLGVYFCSQNTHVPPTFGSGTKLEIK
notes: Variable regions from WO 2006/006693; not shown: constant region of 'a κ chain'
Human CD40 on cells [3]
  binding result: no binding (tested: 10 µg/mL)
[4]
  Kd: 2.6 nM
  koff: 0.000378 s⁻¹
  kon: 145000 M⁻¹ s⁻¹
[5]
  Kd: 1.46 nM
  koff: 0.000299 s⁻¹
  kon: 205000 M⁻¹ s⁻¹

B5: anti-GPC3 antibody GPngs18 (antibody, human IgG4 S228P, kappa, V domains shown)
VH: EVQLVESGGGLVQPGGSLRLSCAASGFTFSSYSMNWVRQAPGKGLEWVSYIRSDSRTIKYADSVKGRFTISRDNAKNSLFLQMNSLRDEDTAVYYCARWEWELDAFDIWGQGTMVTVSS
VL: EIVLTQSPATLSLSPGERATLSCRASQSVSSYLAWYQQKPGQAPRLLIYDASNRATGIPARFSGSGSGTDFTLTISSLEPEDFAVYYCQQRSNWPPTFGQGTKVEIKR
notes: IgG4PE R409K; light chain with L6 as VL
Human CD40 on cells [6]
  binding result: no binding (tested: 10 µg/mL)
[5]
  Kd: 0.39 nM
  koff: 0.000764 s⁻¹
  kon: 1.96e+06 M⁻¹ s⁻¹

B6: anti-CD40 monoclonal antibody 21.4.1 (CP-870,893) (antibody, V domains shown)
VH: not shown
VL: DIQMTQSPSSVSASVGDRVTITCRASQGIYSWLAWYQQKPGKAPNLLIYTASTLQSGVPSRFSGSGSGTDFTLTISSLQPEDFATYYCQQANIFPLTFGGGTKVEIK
notes: Constant region of human IgG2 (N5KG2 vector); positive control agonistic anti-CD40 antibody
[1]
  binding result: no binding (tested: 10 µg/mL)

B7: conventional anti-GPC3 antibody HN3 (IgG4PE R409K) (antibody, V domains shown)
VH: QVQLVQSGGGLVQPGGSLRLSCAASYFDFDSYEMSWVRQAPGKGLEWIGSIYHSGSTYYNPSLKSRVTISRDNSKNTLYLQMNTLRAEDTATYYCARVNMDRFDYWGQGTLVTVSS
notes: Variable region from WO 2012/145469
Human CD40 on cells [3]
  binding result: no binding (tested: 10 µg/mL)
[4]
  Kd: 13.2 nM
[5]
  Kd: 24.4 nM
[7]
  kon: > 1e+07 M⁻¹ s⁻¹
[8]
  kon: > 1e+07 M⁻¹ s⁻¹

B8: anti-GPC3 antibody GpA6062 (antibody, human IgG4 S228P, kappa, V domains shown)
VH: EVQLVETGGGLVQPGGSLRLSCAASGFSFSSYAMNWVRQAPGKGLEWVSYITSGGSSRYYADSVKGRFTISRDNAKNSLYLQMNSLRDEDTAVYYCARGTYYYGSGNYFLFDYWGQGTTVTVSS
VL: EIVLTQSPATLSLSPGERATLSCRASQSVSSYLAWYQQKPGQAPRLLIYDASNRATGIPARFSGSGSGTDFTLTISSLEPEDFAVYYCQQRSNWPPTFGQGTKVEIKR
notes: as for B5
Human CD40 on cells [9]
  binding result: no binding (tested: 10 µg/mL)
[5]
  Kd: 6.33 nM
  koff: 0.00175 s⁻¹
  kon: 276000 M⁻¹ s⁻¹

B9: anti-GPC3 antibody GpA6014 (antibody, human IgG4 S228P, kappa, V domains shown)
VH: B8 VH with E1Q, V2M, E6Q, T7S, Y113H, T119M
VL: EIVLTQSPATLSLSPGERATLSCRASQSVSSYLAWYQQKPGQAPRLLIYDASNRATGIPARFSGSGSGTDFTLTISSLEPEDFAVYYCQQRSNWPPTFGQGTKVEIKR
notes: as for B5
Human CD40 on cells [9]
  binding result: no binding (tested: 10 µg/mL)
[5]
  Kd: 6.35 nM
  koff: 0.00189 s⁻¹
  kon: 297000 M⁻¹ s⁻¹

B10: anti-GPC3 antibody GpA6005 (antibody, human IgG4 S228P, kappa, V domains shown)
VH: B8 VH with E1Q, T7S, S28T, A33S, T52K, G54S, R58T, Y80N, Y108F, T119L
VL: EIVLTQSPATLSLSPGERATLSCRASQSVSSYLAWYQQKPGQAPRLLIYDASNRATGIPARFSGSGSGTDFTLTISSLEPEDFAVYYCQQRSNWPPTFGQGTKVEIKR
notes: as for B5
Human CD40 on cells [9]
  binding result: no binding (tested: 10 µg/mL)
[5]
  Kd: 0.762 nM
  koff: 0.000347 s⁻¹
  kon: 456000 M⁻¹ s⁻¹

B11: anti-GPC3 antibody GPngs62 (antibody, human IgG4 S228P, kappa, V domains shown)
VH: EVQLVESGGGLVQPGGSLRLSCAASGFTFSSYARSWVRQAPGKGLEWVSAISGGGGRTYYADSVKGRFTISRDNSQNTLYLQMNSLRAEDTAVYYCAKNYYGSGSASYWYFDLWGRGTLVTVSS
VL: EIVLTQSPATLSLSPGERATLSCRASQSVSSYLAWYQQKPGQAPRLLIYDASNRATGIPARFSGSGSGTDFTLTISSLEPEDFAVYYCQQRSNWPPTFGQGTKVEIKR
notes: as for B5
Human CD40 on cells [6]
  binding result: no binding (tested: 10 µg/mL)
[5]
  Kd: 5.36 nM
  koff: 0.031 s⁻¹
  kon: 5.74e+06 M⁻¹ s⁻¹
